# In patent publication US20190112340A1:
# Assays:
# [1] = target: RSV F DS-Cav1 (human RSV subtype A (strain A2)) (UniProt P03420); test: BLI (Octet), F on Ni-NTA tips, Fab in solution
# [2] = target: RSV F sc9 DS-Cav1 (human RSV subtype A (strain A2)); test: BLI (Octet), F on Ni-NTA tips, Fab in solution
# [3] = target: sc10 DS-Cav1; test: BLI (Octet), F on Ni-NTA tips, Fab in solution
# [4] = target: sc9-10 A DS-Cav1 A149C, Y458C; test: BLI (Octet), F on Ni-NTA tips, Fab in solution
# [5] = target: sc9-10 DS-Cav1 A149C, Y458C S46G-E92D-S215P-K465Q (A2); test: BLI (Octet), F on Ni-NTA tips, Fab in solution
# [6] = target: sc9-10 DS-Cav1 A149C, Y458C S46G-N67I-E92D-S215P-K465Q (A2); test: BLI (Octet), F on Ni-NTA tips, Fab in solution
# [7] = target: sc9-10 DS-Cav1 A149C, Y458C S46G-S215P-K465Q (A2); test: BLI (Octet), F on Ni-NTA tips, Fab in solution
# [8] = target: sc9-10 DS-Cav1 N183GC, N428C S46G-N67I-E92D-S215P-K465Q (A2); test: BLI (Octet), F on Ni-NTA tips, Fab in solution
# [9] = target: sc9-10 DS-Cav1 N183GC,N428C; test: BLI (Octet), F on Ni-NTA tips, Fab in solution
# [10] = target: RSV F DS-Cav1 (human RSV subtype A (strain A2)) (UniProt P03420); test: BLI (Octet), D25 Fab binding after/before stress
# [11] = target: RSV F sc9 DS-Cav1 (human RSV subtype A (strain A2)); test: BLI (Octet), D25 Fab binding after/before stress
# [12] = target: sc10 DS-Cav1; test: BLI (Octet), D25 Fab binding after/before stress
# [13] = target: sc9-10 A DS-Cav1 A149C, Y458C; test: BLI (Octet), D25 Fab binding after/before stress
# [14] = target: sc9-10 DS-Cav1 A149C, Y458C S46G-E92D-S215P-K465Q (A2); test: BLI (Octet), D25 Fab binding after/before stress
# [15] = target: sc9-10 DS-Cav1 A149C, Y458C S46G-N67I-E92D-S215P-K465Q (A2); test: BLI (Octet), D25 Fab binding after/before stress
# [16] = target: sc9-10 DS-Cav1 A149C, Y458C S46G-S215P-K465Q (A2); test: BLI (Octet), D25 Fab binding after/before stress
# [17] = target: sc9-10 DS-Cav1 N183GC, N428C S46G-N67I-E92D-S215P-K465Q (A2); test: BLI (Octet), D25 Fab binding after/before stress
# [18] = target: sc9-10 DS-Cav1 N183GC,N428C; test: BLI (Octet), D25 Fab binding after/before stress
# [19] = target: RSV F sc9 DS-Cav1 (human RSV subtype A (strain A2)); test: D25 binding to heat-treated protein relative to the untreated protein (physical stability, FIG. 1E)
# [20] = target: RSV F sc9-10 DS-Cav1 (human RSV subtype A (strain A2)); test: BLI (Octet), F on Ni-NTA tips, Fab in solution
# [21] = target: RSV F sc9-41 DS-Cav1 (human RSV subtype A (strain A2)) (UniProt P03420); test: BLI (Octet), F on Ni-NTA tips, Fab in solution
# [22] = target: RSV F sc9-42 DS-Cav1 (human RSV subtype A (strain A2)) (UniProt P03420); test: BLI (Octet), F on Ni-NTA tips, Fab in solution
# [23] = target: RSV F sc9-9 DS-Cav1 (human RSV subtype A (strain A2)) (UniProt P03420); test: BLI (Octet), F on Ni-NTA tips, Fab in solution
# [24] = target: sc11 DS-Cav1; test: BLI (Octet), F on Ni-NTA tips, Fab in solution
# [25] = target: sc4 DS-Cav1; test: BLI (Octet), F on Ni-NTA tips, Fab in solution
# [26] = target: sc8 DS-Cav1; test: BLI (Octet), F on Ni-NTA tips, Fab in solution
# [27] = target: sc9 DS-Cav1-105Q; test: BLI (Octet), F on Ni-NTA tips, Fab in solution
# [28] = target: sc9-10 DS-Cav1 Q98C, Q361C L95M-I221M-R429K (B18537); test: BLI (Octet), F on Ni-NTA tips, Fab in solution
# [29] = target: sc9-10 DS-Cav1 Q98C, Q361C S46G-E92D-L95M-S215P-I217P-I221M-R429K-K465Q (Long (VR26)); test: BLI (Octet), F on Ni-NTA tips, Fab in solution
# [30] = target: sc9-19 DS-Cav1; test: BLI (Octet), F on Ni-NTA tips, Fab in solution
# [31] = target: sc9-24 DS-Cav1; test: BLI (Octet), F on Ni-NTA tips, Fab in solution
# [32] = target: bRSV F 391-2 DS-Cav1 (bovine RSV, strain 391-2) (UniProt P22167); test: Fab binding to purified bRSV F trimer (Octet BLI as in Example 1)
# [33] = target: bRSV F 391-2 post-F (bovine RSV, strain 391-2) (UniProt P22167); test: as above
# [34] = target: bRSV F 391-2 post-F (bovine RSV, strain 391-2) (UniProt P22167); test: Motavizumab binding to stressed post-F protein as a fraction of the untreated protein (physical stability)
substance,measurement,setting,value
D25 Fab,Kd,[1],0.15 nM
same,Kd,[2],0.8 nM
same,Kd,[3],0.3 nM
same,Kd,[4],0.2 nM
same,Kd,[5],0.2 nM
same,Kd,[6],0.6 nM
same,Kd,[7],0.1 nM
same,Kd,[8],0.2 nM
same,Kd,[9],0.2 nM
same,"fractional D25 reactivity, 50 °C",[10],0.9
same,"fractional D25 reactivity, 70 °C",[10],0
same,"fractional D25 reactivity, freeze-thaw",[10],0.1
same,"fractional D25 reactivity, osmolality 10 mM",[10],0.9
same,"fractional D25 reactivity, osmolality 3000 mM",[10],1
same,"fractional D25 reactivity, pH 3.5",[10],0.8
same,"fractional D25 reactivity, pH 10.0",[10],0.5
same,"fractional D25 reactivity, 50 °C",[11],0.4
same,"fractional D25 reactivity, 70 °C",[11],0.4
same,"fractional D25 reactivity, freeze-thaw",[11],0.2
same,"fractional D25 reactivity, osmolality 10 mM",[11],0.1
same,"fractional D25 reactivity, osmolality 3000 mM",[11],0.1
same,"fractional D25 reactivity, pH 3.5",[11],0.2
same,"fractional D25 reactivity, pH 10.0",[11],0.1
same,"fractional D25 reactivity, 50 °C",[12],0.3
same,"fractional D25 reactivity, 70 °C",[12],0.3
same,"fractional D25 reactivity, freeze-thaw",[12],0.1
same,"fractional D25 reactivity, osmolality 10 mM",[12],0.1
same,"fractional D25 reactivity, osmolality 3000 mM",[12],0.1
same,"fractional D25 reactivity, pH 3.5",[12],0.2
same,"fractional D25 reactivity, pH 10.0",[12],0.2
same,"fractional D25 reactivity, 10 cycles freeze/thaw with 5% glycerol",[13],0.6
same,"fractional D25 reactivity, 10 cycles freeze/thaw with 10% glycerol",[13],0.9
same,"fractional D25 reactivity, 50 °C",[13],1
same,"fractional D25 reactivity, 70 °C",[13],0.8
same,"fractional D25 reactivity, freeze-thaw",[13],0.3
same,"fractional D25 reactivity, osmolality 10 mM",[13],0.7
same,"fractional D25 reactivity, osmolality 3000 mM",[13],0.6
same,"fractional D25 reactivity, pH 3.5",[13],2.3
same,"fractional D25 reactivity, pH 10.0",[13],0.7
same,"fractional D25 reactivity, 50 °C",[14],0.9
same,"fractional D25 reactivity, 70 °C",[14],0.8
same,"fractional D25 reactivity, freeze-thaw",[14],0.2
same,"fractional D25 reactivity, osmolality 10 mM",[14],0.5
same,"fractional D25 reactivity, osmolality 3000 mM",[14],0.6
same,"fractional D25 reactivity, pH 3.5",[14],3.8
same,"fractional D25 reactivity, pH 10.0",[14],0.6
same,"fractional D25 reactivity, 50 °C",[15],1
same,"fractional D25 reactivity, 70 °C",[15],0.9
same,"fractional D25 reactivity, freeze-thaw",[15],0.1
same,"fractional D25 reactivity, osmolality 10 mM",[15],0.8
same,"fractional D25 reactivity, osmolality 3000 mM",[15],0.7
same,"fractional D25 reactivity, pH 10.0",[15],0.7
same,"fractional D25 reactivity, 50 °C",[16],1
same,"fractional D25 reactivity, 70 °C",[16],0.9
same,"fractional D25 reactivity, freeze-thaw",[16],0.1
same,"fractional D25 reactivity, osmolality 10 mM",[16],0.7
same,"fractional D25 reactivity, osmolality 3000 mM",[16],0.8
same,"fractional D25 reactivity, pH 10.0",[16],0.4
same,"fractional D25 reactivity, 50 °C",[17],1
same,"fractional D25 reactivity, 70 °C",[17],0.9
same,"fractional D25 reactivity, freeze-thaw",[17],0.2
same,"fractional D25 reactivity, osmolality 10 mM",[17],0.8
same,"fractional D25 reactivity, osmolality 3000 mM",[17],0.7
same,"fractional D25 reactivity, pH 10.0",[17],0.5
same,"fractional D25 reactivity, 10 cycles freeze/thaw with 5% glycerol",[18],0.6
same,"fractional D25 reactivity, 10 cycles freeze/thaw with 10% glycerol",[18],0.7
same,"fractional D25 reactivity, 50 °C",[18],1
same,"fractional D25 reactivity, 70 °C",[18],0.5
same,"fractional D25 reactivity, freeze-thaw",[18],0.3
same,"fractional D25 reactivity, osmolality 10 mM",[18],0.9
same,"fractional D25 reactivity, osmolality 3000 mM",[18],0.4
same,"fractional D25 reactivity, pH 3.5",[18],2.6
same,"fractional D25 reactivity, pH 10.0",[18],0.7
same,percent still active (site Ø retained) after 1 h at 70 °C,[19],39%
Motavizumab Fab,Kd,[1],0.04 nM
same,Kd,[2],13.7 nM
same,Kd,[20],9.7 nM
same,Kd,[21],0.04 nM
same,Kd,[22],5.9 nM
same,Kd,[23],1 nM
same,Kd,[3],22.4 nM
same,Kd,[24],29.3 nM
same,Kd,[25],7.6 nM
same,Kd,[26],< 0.01 nM
same,Kd,[27],16.3 nM
same,Kd,[4],0.4 nM
same,Kd,[5],0.6 nM
same,Kd,[6],0.1 nM
same,Kd,[7],0.4 nM
same,Kd,[8],0.6 nM
same,Kd,[9],0.3 nM
same,Kd,[28],0.2 nM
same,Kd,[29],11.1 nM
same,Kd,[30],16.7 nM
same,Kd,[31],15.1 nM
same,Kd,[32],0.8 nM
same,Kd,[33],0.6 nM
same,fractional antibody reactivity after 10 cycles of freeze-thaw,[34],1
same,fractional antibody reactivity after 50 °C,[34],1
same,fractional antibody reactivity after 70 °C,[34],1
same,fractional antibody reactivity after osmolarity 10 mM,[34],0.9
same,fractional antibody reactivity after osmolarity 3000 mM,[34],0.6
same,fractional antibody reactivity after pH 3.5,[34],0.8
same,fractional antibody reactivity after pH 10.0,[34],1.1
